Experimental data: PMC12436618

Molecular target: KIF1A-201(1-482)-His (mouse)
Assay: SEC; Superdex 200 Increase 10/300 GL; 250 µg of each protein at about 1.2 µg/µl; 20 mM PIPES-KOH pH 7.0, 150 mM KCl, 1 mM MgCl2, 0.1% Tween 20; size from a calibration curve of globular standards; monomer to dimer

## KIF1A-201(1-482)-His (domain or fragment)
  stoichiometry N: 2
